# Paper doi:10.1101/2024.08.24.609485
# Target: GST-N-WASP-PRD (human) (UniProt O00401)
# Assay: mass photometry
substance,measurement,value
GST-N-WASP-PRD (from UniProt O00401 261-332) (domain or fragment),stoichiometry N,2
